The values that follow come from paper PMC5145273.

The target in the assay is FabL9, soluble purified Fab. The assay can be described thus: ELISA. (In general: An ELISA detects its analyte on a solid surface through an enzyme-linked reagent.)

With “GluA4_(flip) ligand-binding domain (LBD), rat (domain or fragment)”, the half-maximal inhibitory concentration (IC50) stood at 0.26 µM.

As usually defined, the IC50 is the concentration needed to halve the response being measured. The low end stands for greater potency, the high end for weaker potency.
